Ends that are not written are not given here.

One series has as its target T1, human PAC1 (Homo sapiens, UniProt P41586).
T1 construct: expressed in transfected cells
T1 sequence (P41586 21-468): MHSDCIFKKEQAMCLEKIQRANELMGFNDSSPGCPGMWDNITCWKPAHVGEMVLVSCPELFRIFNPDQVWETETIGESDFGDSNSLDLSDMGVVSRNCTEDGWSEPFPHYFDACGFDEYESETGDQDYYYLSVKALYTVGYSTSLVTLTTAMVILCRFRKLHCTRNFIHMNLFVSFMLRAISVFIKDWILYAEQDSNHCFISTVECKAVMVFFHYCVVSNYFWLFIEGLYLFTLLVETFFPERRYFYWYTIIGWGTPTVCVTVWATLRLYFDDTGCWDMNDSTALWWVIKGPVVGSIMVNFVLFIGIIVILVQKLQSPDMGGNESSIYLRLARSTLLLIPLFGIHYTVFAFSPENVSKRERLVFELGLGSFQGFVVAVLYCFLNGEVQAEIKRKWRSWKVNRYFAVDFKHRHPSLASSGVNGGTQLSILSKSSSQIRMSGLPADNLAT
Briefly: Filter binding assay, membranes from cells transiently transfected with human PAC1, 125I-labeled PACAP-27 tracer. The settings on record: read-out: Human receptor binding (IC50; nM) PAC1. On the procedure: (§1) For this assay, the solutions and equipment include:
(§2) Presoak solution: 0.5% Polyethyleneamine in Aqua dest.
(§3) Buffer for flushing filter plates: 25 mM HEPES pH 7.4
(§4) Blocking buffer: 25 mM HEPES pH 7.4; 0.2% protease free BSA
(§5) Assay buffer: 25 mM HEPES pH 7.4; 0.5% protease free BSA
(§6) Dilution and assay plate: PS-Microplate, U form
(§7) Filtration Plate Multiscreen FB Opaque Plate; […] Type B Glasfiber filter
(§8) In order to prepare the filter plates, the presoak solution is aspirated by vacuum filtration. The plates are flushed twice with 200 μL flush buffer. 200 μL blocking buffer is added to the filter plate. The filter plate is then incubated with 200 μL presoak solution for 1 hour at room temperature.
(§9) The assay plate is filled with […] (2.5 μg) suspended in assay buffer, 25 μL compound (agonist) in assay buffer, and 25 μL tracer (about 40000 cpm) in assay buffer. The filled plate is incubated for 1 hour with shaking.
(§10) The transfer from assay plate to filter plate is conducted. The blocking buffer is aspirated by vacuum filtration and washed two times with flush buffer. 90 μL is transferred from the assay plate to the filter plate. The 90 μL transferred from assay plate is aspirated and washed three times with 200 μL flush buffer. The plastic support is removed. It is dried for 1 hour at 60° C. 30 μL Microscint is added. The count is performed.
(§11) Values reported are single results or the mean of two or more independent runs.

Series [1] has as its target T2, human VPAC2 (Homo sapiens, UniProt P41587).
T2 construct: expressed in transfected cells
T2 sequence (P41587 24-438): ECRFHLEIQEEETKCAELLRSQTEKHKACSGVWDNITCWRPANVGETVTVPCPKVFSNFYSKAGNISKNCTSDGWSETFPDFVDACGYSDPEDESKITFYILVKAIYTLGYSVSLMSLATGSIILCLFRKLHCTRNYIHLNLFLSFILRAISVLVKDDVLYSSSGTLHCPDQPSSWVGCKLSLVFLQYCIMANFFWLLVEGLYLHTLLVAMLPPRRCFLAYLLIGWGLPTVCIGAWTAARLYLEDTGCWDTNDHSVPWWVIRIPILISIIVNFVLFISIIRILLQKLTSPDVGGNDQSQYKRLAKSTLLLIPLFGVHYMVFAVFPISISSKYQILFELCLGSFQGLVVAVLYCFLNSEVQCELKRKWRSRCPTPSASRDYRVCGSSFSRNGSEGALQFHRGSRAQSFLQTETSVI
Briefly: Alpha screen in vitro potency: human VPAC2-R mediated cAMP generation. It is filed as cell-based. The settings on record: single results or mean of two or more independent runs.

The next series has as its target T3, rat VPAC1 receptor (Rattus norvegicus, UniProt P30083).
T3 construct: expressed in transfected cells; host or cells: CHO-PO cells, transient
T3 sequence (P30083 31-459): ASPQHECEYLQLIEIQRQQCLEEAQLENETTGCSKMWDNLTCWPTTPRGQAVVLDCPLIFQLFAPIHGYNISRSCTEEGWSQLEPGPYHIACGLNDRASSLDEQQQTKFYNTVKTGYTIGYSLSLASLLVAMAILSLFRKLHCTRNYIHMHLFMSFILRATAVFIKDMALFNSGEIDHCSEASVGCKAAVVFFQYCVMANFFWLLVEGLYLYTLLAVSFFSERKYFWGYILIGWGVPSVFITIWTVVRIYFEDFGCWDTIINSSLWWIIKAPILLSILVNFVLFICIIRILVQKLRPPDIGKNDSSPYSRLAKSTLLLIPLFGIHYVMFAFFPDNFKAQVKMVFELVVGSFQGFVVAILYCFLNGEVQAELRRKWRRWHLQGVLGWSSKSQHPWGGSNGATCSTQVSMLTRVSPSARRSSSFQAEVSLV
Briefly: Rat VPAC1 in vitro potency (cAMP generation, DiscoveRx) in transiently transfected CHO-PO cells. It is filed as cell-based. The settings on record: CHO-PO cells transiently transfected with rat VPAC1; read-out: rVPAC1 in vitro potency (cAMP generation) EC50. As for the experimental part: Rat receptor selectivity is estimated by comparing functional potency (cAMP generation) in CHO-PO cells transiently expressing rat VPAC1 or rat VPAC2 receptors. CHO-PO cells transiently expressing rat VPAC1 or VPAC2, are seeded with 10,000 cells/well three days before the assay. The cells are kept in 200 μL culture medium. […] The stimuli are present for 30 minutes. The assay buffer is then gently removed.

Series [2] has as its target T2, human VPAC2. Nature of the series: Filter binding assay, membranes from stable VPAC2 cell line, 125I-labeled VIP tracer. The settings on record: read-out: Human receptor binding (IC50; nM) VPAC2. As for the experimental part:
as §1, §2, §3, §4, §5, §6, §7, §8, §9, §10, §11

Series [3] is described as follows: Pharmacokinetic profiles of PEGylated peptides, plasma peptide by RIA. It counts as in vivo, Fisher 344 rats. The settings on record: Fisher 344 rats, 100 μg compound/kg, plasma RIA, mean N = 3. On the procedure: Pharmacokinetic profiles of PEGylated peptides. Healthy Fisher 344 rats (3 animals per group) are injected with 100 μg compound/kg (compound amount based on peptide content and dissolved in PBS buffer). […] PK parameters are then calculated using a model-independent method (WinNonlin Pro, Pharsight Corp., Mountain View, Calif., USA).

By IC50 is commonly meant the midpoint of a concentration-inhibition curve. Regarding “P137: PEGylated material obtained from P120 and methoxy-PEG2-MAL-40K (HSDAVFTDNYTRLRKQVAAKKYLQSIKNKRYGGPSSGAPPPC; also: PEGylated with methoxy-PEG2-MAL-40K, site not given here) [Agonist P137]”, the IC50 is above 25000 nM with human PAC1 and 0.64 nM with human VPAC2 [2]. The EC50 in the series with human VPAC2 [1] was 8.31 nM; with rat VPAC1 receptor, 29.7 nM.

What is called Cmax is the peak of the concentration-time curve. One may read the Tmax as the time from dosing to the highest level. As to “C6-HSDAVFTDNYTOrnLRAibQVAAAibKYLQC(PEG40K)IOrnNOrnGGPSSGAPPPS (HSDAVFTDNYTXLRXQVAAXKYLQCIXNXGGPSSGAPPPS; non-natural residues) [Agonist P373]”, the IC50 with human PAC1 is above 25000 nM. The substance also registered an EC50 with human VPAC2 [1] of 33.9 nM. In series [3], the AUC0-last was found to be 10803 ng·h/mL, the Cl/F is 0.167 mL/min/kg, the Cmax was found to be 240 ng/mL and the Tmax was determined as 13 h. For the same substance, the T½ in series [3] is 31 h. In addition, in the series with rat VPAC1 receptor, the EC50 turned out to be 350 nM. Further, the half-inhibitory concentration (IC50) with human VPAC2 [2] came to 111 nM.

“C6-HDAVFTEQY(OMe)TOrnLRAibQVAAAibOrnYLQSIOrnOrnGGPSSGAPPPC(PEG60K)-NH2 [Agonist P404]”: the IC50 with human PAC1 was above 25000 nM. This substance also yielded an EC50 in the series with human VPAC2 [1] of 17 nM. Further, in series [3], the AUC0-last was found to be 6070 ng·h/mL, the Cl/F is 0.283 mL/min/kg, the Cmax is given as 133 ng/mL and the time of peak concentration (Tmax) is listed as 20 h. In series [3], this substance came in with a T½ of 23 h. Further, the EC50 with rat VPAC1 receptor is 23.4 nM. Also, the IC50 with human VPAC2 [2] came to 13.1 nM.

For “C6-HSDAVFTEQY(OMe)TOrnLRAibQVAK(CO(CH2)2SPEG40K)AibOrnYLQSIOrnOrnGGPSSGAPPPS-NH2 (HSDAVFTEQYTXLRXQVAXXXYLQSIXXGGPSSGAPPPS; non-natural residues) [Agonist P432]”, the IC50 with human PAC1 is above 25000 nM. For the same substance, the EC50 in the series with human VPAC2 [1] was 20.1 nM. In addition, in series [3], the AUC0-last was found to be 21471 ng·h/mL, the Cl/F was found to be 0.083 mL/min/kg, the Cmax is on record as 392 ng/mL and the time of peak concentration (Tmax) is given as 16 h. The T½ in series [3] was 35 h. Further, the EC50 with rat VPAC1 receptor was above 100 nM. In addition, the IC50 with human VPAC2 [2] was 130 nM.

The values are drawn from US20080146500A1, “Selective Vpac2 Receptor Peptide Agonists” (priority 2004, published 2008).
